Source: patent US20140255415A1 (Novartis, published 2014)

Assays:
[1] = biological target: T1, human LINGO-1-ΔLRR-Fc (Igleader-hsLINGO-1-ΔLRR-Fc) (human, UniProt Q96FE5 40-556); test: ELISA, captured Fc fusion protein
T1 construct: Heterologous secretion signal left out; also called human LINGO-1 lacking the LRR domain
T1 sequence: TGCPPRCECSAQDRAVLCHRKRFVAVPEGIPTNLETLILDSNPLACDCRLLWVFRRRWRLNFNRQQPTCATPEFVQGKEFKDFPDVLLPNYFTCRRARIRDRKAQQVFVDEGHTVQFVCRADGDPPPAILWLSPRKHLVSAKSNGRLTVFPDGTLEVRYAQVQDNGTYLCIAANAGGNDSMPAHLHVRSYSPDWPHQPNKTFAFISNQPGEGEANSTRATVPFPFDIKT

[2] = biological target: T2, human NgR-Fc fusion protein (R&D Systems) (human, UniProt Q9BZR6 27-447, limits assumed); test: ELISA, captured Fc fusion protein
T2 construct: Commercial protein; also called captured human NgR-Fc; not shown: Fc part of the commercial fusion protein; not described
T2 sequence (looked up): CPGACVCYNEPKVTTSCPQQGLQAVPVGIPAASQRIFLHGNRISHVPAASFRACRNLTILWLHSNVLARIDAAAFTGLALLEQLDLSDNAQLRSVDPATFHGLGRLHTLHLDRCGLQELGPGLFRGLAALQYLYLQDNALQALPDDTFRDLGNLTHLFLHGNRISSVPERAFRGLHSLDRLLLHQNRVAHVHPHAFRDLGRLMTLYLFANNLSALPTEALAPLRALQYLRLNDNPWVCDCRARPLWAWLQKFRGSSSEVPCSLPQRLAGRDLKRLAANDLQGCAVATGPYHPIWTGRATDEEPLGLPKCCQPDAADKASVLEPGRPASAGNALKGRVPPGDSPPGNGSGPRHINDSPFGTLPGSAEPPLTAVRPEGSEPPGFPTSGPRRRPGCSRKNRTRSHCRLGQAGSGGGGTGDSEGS

[3] = biological target: T3, human LINGO-2 expressed on CHO-K1 cells (CHO-K1-hLINGO-2) (human, UniProt Q7L985 26-606); test: apparent KD, FACS saturation binding on CHO-K1-hLINGO-2 cells, Fab format
T3 construct: range 26-606; not shown: 2 amino acid residue linker
T3 sequence (looked up): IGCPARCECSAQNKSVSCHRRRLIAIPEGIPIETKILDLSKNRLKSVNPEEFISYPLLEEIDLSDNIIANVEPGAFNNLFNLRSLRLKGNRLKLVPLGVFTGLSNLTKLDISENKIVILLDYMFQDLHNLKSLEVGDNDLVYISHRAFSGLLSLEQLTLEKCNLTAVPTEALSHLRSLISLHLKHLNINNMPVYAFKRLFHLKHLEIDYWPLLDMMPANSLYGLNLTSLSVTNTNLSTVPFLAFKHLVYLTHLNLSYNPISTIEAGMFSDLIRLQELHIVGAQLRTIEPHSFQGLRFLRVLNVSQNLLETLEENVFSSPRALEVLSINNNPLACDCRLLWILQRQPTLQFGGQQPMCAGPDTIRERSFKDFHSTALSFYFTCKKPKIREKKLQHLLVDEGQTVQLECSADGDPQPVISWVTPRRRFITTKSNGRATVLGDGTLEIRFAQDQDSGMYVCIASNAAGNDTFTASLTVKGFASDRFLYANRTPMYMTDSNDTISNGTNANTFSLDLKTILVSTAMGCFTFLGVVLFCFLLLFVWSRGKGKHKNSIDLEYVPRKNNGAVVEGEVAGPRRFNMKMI

[4] = biological target: T4, rat LINGO-1 expressed on CHO-K1 cells (CHO-K1-rLINGO-1) (rat, UniProt A0A8I5ZPI2 34-614); test: apparent KD, FACS saturation binding on CHO-K1-rLINGO-1 cells, Fab format
T4 construct: range 34-614; not shown: 2 amino acid residue linker
T4 sequence: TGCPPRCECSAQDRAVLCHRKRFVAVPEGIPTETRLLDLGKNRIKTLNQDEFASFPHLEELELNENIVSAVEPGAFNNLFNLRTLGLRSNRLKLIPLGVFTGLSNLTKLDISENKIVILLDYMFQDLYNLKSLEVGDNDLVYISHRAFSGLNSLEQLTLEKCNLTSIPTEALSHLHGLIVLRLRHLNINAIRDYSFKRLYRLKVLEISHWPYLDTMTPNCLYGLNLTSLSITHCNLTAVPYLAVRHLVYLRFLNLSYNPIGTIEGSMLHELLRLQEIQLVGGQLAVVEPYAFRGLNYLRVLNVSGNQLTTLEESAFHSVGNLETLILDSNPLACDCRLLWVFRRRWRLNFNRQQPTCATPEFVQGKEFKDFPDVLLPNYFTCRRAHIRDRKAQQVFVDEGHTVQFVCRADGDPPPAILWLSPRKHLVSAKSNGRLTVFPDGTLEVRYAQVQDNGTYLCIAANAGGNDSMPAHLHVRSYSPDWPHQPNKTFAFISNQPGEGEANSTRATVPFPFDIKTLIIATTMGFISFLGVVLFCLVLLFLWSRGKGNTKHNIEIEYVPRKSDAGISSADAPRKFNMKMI
Procedure: Cell based affinity of anti-LINGO-1 specific antibodies is determined by FACS saturation binding experiments. […] Otherwise the staining procedure is done identical to the FACS staining procedure described above.
In detail, CHO-K1-hLINGO-1, CHO-K1-cmLINGO-1 or CHO-K1-rLINGO-1 are detached from culture flasks by versene, washed with FACS buffer and resuspended in FACS buffer. Purified anti-LINGO-1 Fabs are serially diluted in FACS buffer and spread into round bottom 96-well microtiter plates (NUNC™, Wiesbaden, Germany). For each concentration, duplicate wells are incubated with 1.25×10⁴ cells for 30-60 min on ice in a total volume of 100 μl.

- binding result [1]: no binding
- binding result [2]: no binding
- Kd [3]: 1.21 nM
- Kd [4]: 0.26 nM
B1: anti-LINGO-1 Fab 4785 (Fab, V domains shown)
VH: QVQLQQSGPGLVKPSQTLSLTCAISGDSVSDNSAAWSWIRQSPGRGLEWLGLIYLRSKWDNDYAVSVKSRITINPDTSKNQFSLQLNSVTPEDTAVYYCARTGRADEFDVWGQGTLVTVSS
VL: DIVLTQPPSVSGAPGQRVTISCSGSSSNIGNNYVSWYQQLPGTAPKLLISRNSKRPSGVPDRFSGSKSGTSASLAITGLQSEDEADYYCSTYDTFSIVFGGGTKLTVLG
